Laboratory results: US20100233154A1, “TARGETED BINDING AGENTS DIRECTED TO HEPARANASE AND USES THEREOF 463” (MedImmune Limited, priority 2008, published 2010)

T1: recombinant human heparanase (Homo sapiens, UniProt Q9Y251)
T1 construct: Heparanase 8 and 50 kDa sub-units were cloned into pacGP67 as Sma 1-EcoR1 fragments; made in house; host or cells: Hi5 insect cells, baculovirus (pFastBac Dual)
T1 sequence (Q9Y251 158-543 limits assumed): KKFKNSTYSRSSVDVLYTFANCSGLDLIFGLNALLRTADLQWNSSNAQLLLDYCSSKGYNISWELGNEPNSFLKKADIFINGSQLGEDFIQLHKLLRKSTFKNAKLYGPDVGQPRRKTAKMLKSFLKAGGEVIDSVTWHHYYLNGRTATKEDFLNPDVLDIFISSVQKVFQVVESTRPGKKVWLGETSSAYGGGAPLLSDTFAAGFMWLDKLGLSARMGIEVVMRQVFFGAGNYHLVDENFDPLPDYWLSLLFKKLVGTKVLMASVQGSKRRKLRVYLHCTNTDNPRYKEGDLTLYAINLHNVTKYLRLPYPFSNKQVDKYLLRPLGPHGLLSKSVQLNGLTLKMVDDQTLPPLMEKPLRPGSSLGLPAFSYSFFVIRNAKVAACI
T1 sequence (Q9Y251 36-109 limits assumed): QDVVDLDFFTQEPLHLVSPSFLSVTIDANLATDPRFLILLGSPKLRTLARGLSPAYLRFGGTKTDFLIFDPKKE

T2: human heparanase (Homo sapiens, UniProt Q9Y251)
T2 sequence (Q9Y251 36-543): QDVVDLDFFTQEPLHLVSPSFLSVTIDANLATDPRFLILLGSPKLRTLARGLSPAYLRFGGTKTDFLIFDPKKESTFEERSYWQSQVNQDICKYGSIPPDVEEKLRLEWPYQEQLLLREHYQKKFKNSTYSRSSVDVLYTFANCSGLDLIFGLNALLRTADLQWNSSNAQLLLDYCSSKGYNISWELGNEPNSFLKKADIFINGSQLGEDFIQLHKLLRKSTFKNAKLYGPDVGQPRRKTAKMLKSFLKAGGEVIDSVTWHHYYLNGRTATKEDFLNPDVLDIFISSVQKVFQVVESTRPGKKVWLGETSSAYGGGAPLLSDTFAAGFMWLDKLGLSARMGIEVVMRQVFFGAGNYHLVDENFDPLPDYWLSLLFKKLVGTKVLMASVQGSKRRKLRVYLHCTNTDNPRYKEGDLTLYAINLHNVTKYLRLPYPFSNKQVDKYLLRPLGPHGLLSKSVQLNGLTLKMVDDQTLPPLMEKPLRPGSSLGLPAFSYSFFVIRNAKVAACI

T3: recombinant heparanase captured with rabbit anti-heparanase antibody (Homo sapiens, UniProt Q9Y251)
T3 construct: Heparanase 8 and 50 kDa sub-units were cloned into pacGP67 as Sma 1-EcoR1 fragments; made in house; host or cells: Hi5 insect cells, baculovirus (pFastBac Dual)
T3 sequence (Q9Y251 158-543 limits assumed): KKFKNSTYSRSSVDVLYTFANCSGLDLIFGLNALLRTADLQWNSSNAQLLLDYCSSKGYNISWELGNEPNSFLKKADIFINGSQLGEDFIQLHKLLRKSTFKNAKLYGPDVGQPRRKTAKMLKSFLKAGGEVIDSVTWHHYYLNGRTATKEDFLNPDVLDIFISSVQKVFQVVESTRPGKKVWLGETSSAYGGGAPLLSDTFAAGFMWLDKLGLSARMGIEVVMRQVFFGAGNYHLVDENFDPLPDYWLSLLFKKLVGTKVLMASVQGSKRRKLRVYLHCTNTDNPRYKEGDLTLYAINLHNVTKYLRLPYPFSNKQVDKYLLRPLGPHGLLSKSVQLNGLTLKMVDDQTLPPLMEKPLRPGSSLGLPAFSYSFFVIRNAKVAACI
T3 sequence (Q9Y251 36-109 limits assumed): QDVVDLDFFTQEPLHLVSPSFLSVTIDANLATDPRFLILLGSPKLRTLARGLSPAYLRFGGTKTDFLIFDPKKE

T4: murine heparanase (Mus musculus, UniProt Q6YGZ1)
T4 construct: made in house; host or cells: Hek293 cells (conditioned medium), inferred for the ELISA
T4 sequence (Q6YGZ1 28-535): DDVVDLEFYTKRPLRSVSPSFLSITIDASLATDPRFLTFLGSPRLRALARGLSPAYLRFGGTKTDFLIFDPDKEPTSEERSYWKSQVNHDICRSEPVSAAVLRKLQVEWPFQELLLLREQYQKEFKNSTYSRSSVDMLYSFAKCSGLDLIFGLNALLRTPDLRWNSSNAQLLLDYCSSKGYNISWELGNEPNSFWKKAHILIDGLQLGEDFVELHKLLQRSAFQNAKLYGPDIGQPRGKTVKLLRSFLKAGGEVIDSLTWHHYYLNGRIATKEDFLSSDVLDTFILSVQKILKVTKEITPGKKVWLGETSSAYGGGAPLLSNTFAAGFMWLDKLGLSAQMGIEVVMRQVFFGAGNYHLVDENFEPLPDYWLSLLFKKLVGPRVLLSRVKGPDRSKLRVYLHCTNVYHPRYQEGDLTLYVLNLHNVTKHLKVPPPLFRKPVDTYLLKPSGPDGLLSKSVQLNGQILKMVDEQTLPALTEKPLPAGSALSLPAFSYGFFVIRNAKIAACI


What was measured:
[1] = target: T1, recombinant human heparanase; experiment: ELISA binding to directly coated recombinant human heparanase
Experimental: (§1) Titres of antibodies from Campaigns 1 and 2 were determined in an ELISA. Costar 3368 medium binding plates were coated directly with recombinant human heparanase or plates were coated with Rabbit anti-heparanase antibody (Raybiotech, Cat. IP-14-155) to capture recombinant heparanase. Directly coated heparanase was detected in three separate plates by mouse (InSight Cat. INS-26-1-0000), goat (Santa Cruz, Cat. sc26136) or rabbit (Raybiotech, Cat. IP-14-155) anti-heparanase antibodies, and quantified using appropriate secondary antibodies. Antibody captured heparanase was detected using mouse anti-heparanase (Insight Cat. INS-26-1-0000). At the end of the immunisation program, fusions were performed using mouse myeloma cells and lymphocytes isolated from the spleens and lymph nodes of the immunised mice by means of electroporation, as described in Example 2.
(§2) Initial screening to detect antibodies binding to human heparanase in both direct coating and antibody capture ELISAs as described above identified 800 hybridomas for further testing; 535 IgG2 from Campaign 1 and 2 and 265 IgG4 from Campaign 2. Enzyme inhibition assays and cross species binding to cynomolgus and murine heparanase, in an antibody capture ELISA, identifed 12 antibodies that were taken forward for sub-cloning to provide purified antibodies for further analysis. Subsequently, confirmation of activity against human heparanase (FIGS. 3 and 4) and inhibition of recombinant cynomolgus and murine heparanase activity in the HS-cryptate degradation assay (FIG. 5a-c), together with sequence analysis, identified 8 antibodies that are described in the table below.

human heparanase = target: T2, human heparanase; experiment: Cross species capture ELISA, human heparanase; format: binding
Experimental: (§3) Initially, cross species binding to human, murine and cynomolgus heparanase was determined in an ELISA assay in which heparanase was captured onto plates using a rabbit anti-heparanase antibody (Raybiotech, Cat. IP-14-155). Exhaustive supernatants were added to the plates at a final dilution of 1:5 and bound antibody detected with a rabbit anti-human IgG Fc.

[2] = target: T3, recombinant heparanase captured with rabbit anti-heparanase antibody; experiment: ELISA binding to antibody-captured heparanase; details: antibody capture
Experimental: as §1, §2

cynomolgus heparanase = experiment: Cross species capture ELISA, cynomolgus heparanase; format: binding; details: min 0.06, max 1.5 OD units
Experimental: as §3

murine heparanase = target: T4, murine heparanase; experiment: Cross species capture ELISA, murine heparanase; format: binding; details: min 0.06, max 0.9 OD units
Experimental: as §3

Row | Binding to direct coated heparanase [1] [OD units] | Binding to heparanase Human (human heparanase) [OD units] | Binding to captured heparanase [2] [OD units] | Binding to heparanase Cyno (cynomolgus heparanase) [OD units] | Binding to heparanase Mouse (murine heparanase) [OD units] | Molecule
1 | 3.78 | 0.68 | 6.0 | 1.06 | 0.58 | 7B9.1: human anti-heparanase monoclonal antibody, G4λ; VH SEQ ID NO 22, VL SEQ ID NO 24 (antibody, listed as Homo Sapiens, V domains shown) VH: QVQLVESGGGVVQPGRSLRLSCAASGFTFSSYGMHWVRQAPGKGLEWVAVIWYDGSNKYYADSVKGRFTISRDNSKNTLYLQMNSLRAEDTAVYYCAREGAPYSSSDAFDIWGQGTMVTVSS VL: QSVLTQPPSVSGAPGQRVTISCTGSSSNIGANYDVHWYQQLPGTAPKLLIYGDNNRPSGVPDRFSGSKSGTSASLAITGLQAEDEADYYCQSYDSSLSGSVFGGGTKLTVL
2 | 3.69 | 0.61 | 3.27 | 0.95 | 0.14 | 14H12.3: human anti-heparanase monoclonal antibody, G2λ; VH SEQ ID NO 26, VL SEQ ID NO 28 (antibody, listed as Homo Sapiens, V domains shown) VH: QVQLVESGGGVVQPGRSLRLSCAASGFTFSSYGMHWVRQAPGKGLEWVAVIWYDGSNKDYADSVKGRFTISRDNSKNTLYLQMNSLRAEDTAVYYCAREGSTSWTDYYGMDVWGQGTTVTVSS VL: SYELTQPPSVSVSPGQTARITCSGDALPKRYAYWYQQKSGQALVLVIYEDSKRPSGIPERFSGSSSGTMATLTISGAQVEDEADYYCYSIDSSGNHGVFGGGTKLTVL
